Experimental data published in the supplement of paper PMC9170038.

System: K4 kissing-loop RNA reporter
Experiment: apparent KD of K4 kissing-loop reporter; higher = weaker reporter binding
Conditions: Eterna round: R107
Description: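 RNA-MaP round R107: designed RNA switches with theophylline, tryptophan, arginine or FMN aptamers are transcribed on-chip within common flanks. They are titrated with a labelled K4 kissing-loop RNA reporter in RNA-MaP buffer (100 mM Tris pH 7.5, 80 mM KCl, 4 mM MgCl2), without ligand or with the indicated ligand. Median apparent KD per design.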

[1] = input ligand: theophylline 20 uM
[2] = input ligand: tryptophan 2.4 mM
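Note: bound reporter read as fluorescence of individual clusters on recovered sequencing chips by microscopy, with normalized cluster intensities fitted with a binding model.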

Row | Sequence | apparent KD of K4 kissing-loop reporter (input ligand: FMN 200 uM) | apparent KD of K4 kissing-loop reporter (input ligand: arginine 13.2 mM) | apparent KD of K4 kissing-loop reporter (input ligand: none) | apparent KD of K4 kissing-loop reporter [1] | apparent KD of K4 kissing-loop reporter [2]
1 | GAGGGCCCUGUAGGAUAUGAGUCUAGUGAUGUUAGGCGGUCCAUGCGCGUGGCGCGUUAUGCCCUUUUAGAAGGACAGGGCUCUC [#2 Exclusion - FMN B Attempt #21 (HarryS)] | 109 nM | 63 nM | 82.4 nM | 83.3 nM | 84.7 nM
2 | GAUAGGAAACUAUCAAAUCGGGAAACCGAUACCAGUAUGGAUUCAUACCCUUGGCAGCGGGAUUAUAAAAUAGGAGUGAUGUUCC [Theophylline A K4 16] | 219 nM | 213 nM | 220 nM | 241 nM | 189 nM
3 | GAUGAUCGCGCGGCCGCCACUGGUCAGUGAUGUUGACAUUAAUGCGCCGAGUAGUAACGGCGCAGUAGGACCGGGCGCGAUGUAG [#13 K4 Tryptophan B Same State] | 151 nM | 139 nM | 139 nM | 198 nM | 110 nM
4 | GAUGGUCGAGAAGGAUAUGUGACUACCAGAAGGAAAUUCAGUGAUGUUGAUUGUCGCGAGCAGGAGACAGAAGGUCUCAGACAUA [theeternabot_exclusion_KL_FMN_B_5] | 506 nM | 265 nM | 330 nM | 351 nM | 276 nM
5 | GAUUAAUAAGAGGAUACCAGUACUAAUAAAGUACAUUAAUAGUAGAGUGAUGUUCUAAAGUACCCUUGGCAGCUUAGAGUAAGUU [#08 K4 Theophylline B Exclusion] | 128 nM | 224 nM | 157 nM | 226 nM | 97.5 nM
6 | GAUUACAACAGAGUGAUGUUCUGACUUUCUCGAGGACCGGUACGGCCGCCACUCGUUAAACAAAGUGGUUUGCCAAGGCCAACUU | 139 nM | 198 nM | 157 nM | 208 nM | 111 nM
7 | GAUUCAGUGAUGUUGGAAGGCGAGCGGGAUACCAGCCGAGACUCAGGCCCUUGGCAGCCCACAUAUCCCAGGUAGAUAGUAGAUC [Same State - Theophylline A (Freestyle 8)] | 193 nM | 106 nM | 129 nM | 166 nM | 135 nM
8 | GAUUCUAGCGAAAGUGAUGUUUUCGAGGAUACCAGUGCCACUUGACACCCUUGGCAGCCUACCCGUCAUCACAAGUGGCGUUAAA [theeternabot_exclusion_KL_Theo_A_28] | 136 nM | 114 nM | 129 nM | 138 nM | 118 nM
9 | GAUUGGCGGACGGCCGCCACUCGGACGAGUCACAGUGAUGUUGUGGUUUGCCAGUCGACUUCAUCGAGGACCGGGUUUGUCGGGC [Exclusion Tryptophan B GF 21] | 592 nM | 407 nM | 497 nM | 405 nM | 349 nM
10 | GAUUUAGAGGCGGCCGCCACUAGUGAUGUUAGUGAUGUUUGAUAGGGAAUAUAUCUGCGAGUAGAUAGGACCGGGCCAGAUGGAG [eccvbmullin] | 192 nM | 128 nM | 150 nM | 168 nM | 151 nM
11 | GCAAACCUCAGUGAUGUUGAGAAAUCGGAAGGAGCGCGUGAAAACGCAGGUAGGUCGCCGACACAUGAAGUAUCUUCGUGUUUGC [Arginine A K4 22] | 276 nM | 272 nM | 316 nM | 328 nM | 243 nM
12 | GCAACAUUGGUAGGAUAUCAUUCUGAGUGAUGUUCAGGGUUCAGCUAACGAAAGUUAGUUGUACCAUGAGAAGGGCUAAUGUUGC [Omei KL FMN B SS A v5] | 425 nM | 711 nM | 967 nM | 820 nM | 989 nM
13 | GCAGACACGCAGUGAUGUUGCGAAACGGAAGGAGCGCGUGAAAACGCAGGUAGGUCGCCGACACAUAAAUUAUAAUUUUGUUUGC [Arginine A K4 14] | 253 nM | 214 nM | 246 nM | 237 nM | 205 nM
14 | GCAGUGAUGUUGCGGAUGUACAGUGGCGUGCGAGGACCGGUACGGCCGCCACUCGUACAGAGCAAGCUAAUACAUCGAUAGGUGA [whbob_SS_Tryp_A_m4] | 436 nM | 223 nM | 207 nM | 382 nM | 240 nM
15 | GCCAUCUACUAAGGAUAUUAAGUCAAUAUUUGUGGUGCCAUCUGUCGUUCAGGGCAGUGAUGUUGCUAAGAAGGUAGUCUGUCGG [theeternabot_exclusion_KL_FMN_B_39] | 757 nM | 441 nM | 636 nM | 593 nM | 407 nM
16 | GCCCGGUGAAUCCGCCAAGAUAGACACCGUCGAGGACCGGUACGGCCGCCACUCGAGUACGAGUGAUGUUCGUACGCGGUGUCGA [Onedzate] | 606 nM | 728 nM | 657 nM | 431 nM | 189 nM
17 | GCCGUACGCAUGGAUACCAGCUAGACCGAGUGAUGUUCAGGUCUGAAUGCCGGUAAUAAGAGCCCUUGGCAGCCAUGCGUACGGC | 361 nM | 262 nM | 358 nM | 335 nM | 307 nM
18 | GCCGUAGAUGGAAGGAGCGUGGUCUAGAAGCACAAGUGAUGUUUGUGGUAACCUUCUGACCCACAGGUAGGUCGCCAUCUACGGC | 88.4 nM | 78.4 nM | 85.7 nM | 68.1 nM | 82.1 nM
19 | GCCGUAGAUUGAAGGAGCGGGCCGUAGUGAUGUUACGCCAAGUUGUCUUUUAUUGAUGUGGCCCAGGUAGGUCGCAAUCUACGGC | 300 nM | 287 nM | 311 nM | 217 nM | 273 nM
20 | GCCGUAGAUUGAAGGAGCGUUCUUACUGAUUACGGCAGCCGGAAGUGAUGUUUCCAGGUGGAACAGGUAGGUCGCAAUCUACGGC | 104 nM | 87.2 nM | 96 nM | 99.8 nM | 92 nM
21 | GCCGUCCGGUCGCAAGACCGGACAGCCGAUACCAGCGCGAAGGCGCGCCCUUGGCAGCGGCACCGAGUGAUGUUCGGUCAGGCGG [#2 Same State - Theophylline A Attempt #2 (HarryS)] | 179 nM | 148 nM | 173 nM | 128 nM | 166 nM

Row | Sequence | apparent KD of K4 kissing-loop reporter (input ligand: FMN 200 uM) | apparent KD of K4 kissing-loop reporter (input ligand: arginine 13.2 mM) | apparent KD of K4 kissing-loop reporter (input ligand: none) | apparent KD of K4 kissing-loop reporter [1] | apparent KD of K4 kissing-loop reporter [2]
22 | GCCUAGCAGGGAAGGAGCGCCAGGAGAAGAAAUGGAGAGAGUUGAGUGAUGUUCAAAUGGUGGCAGGUAGGUCGCCCUGCUAGGC [KL-SSArg B12] | 388 nM | 298 nM | 583 nM | 761 nM | 274 nM
23 | GCCUGGGCCCGAAGGAGCGCCGUGACAGGUUACUGCAUUGAGCAGUGAUGUUGCUCAAUCUGGCAGGUAGGUCGCGGGCCCAGGC | 120 nM | 100 nM | 102 nM | 108 nM | 93.1 nM
24 | GCGAAAAGCAAAACGAGUGAUGUUCGAAAACGAGGACCGGUACGGCCGCCACUCGAAAACGUCUGCGUGGGAAACUAUGUAGAUG [SS Tryptophan A - 1] | 511 nM | 569 nM | 698 nM | 590 nM | 302 nM
25 | GCGCGCGGCGGAGGAUAUAGCCGGUGAUCCGAGAAAGUGAGUGAUGUUUACGGAGUUGAGGAUAUGUUAGAAGGCCGCCGCGCGC [abcdefghijklmnopqrstuvwx] | 339 nM | 751 nM | 1000 nM | 792 nM | 789 nM
26 | GCGCGGGUCAGUGAUGUUGACCCUCGGAGACGAGGACCGGUACGGCCGCCACUCGUCCGCGCAGCUGAGGCAAAAGCCUCGGCAA [Omei KL Tryp A SS B v5] | 155 nM | 142 nM | 140 nM | 131 nM | 103 nM
27 | GCGUUACUGAAAGGAUAUGAUCAACAUAGUGGUCAGUGAUGUUGGCAGGCCUCGUGGCGAGGUAGAUCAGAAGGUUCAUUACGAC [theeternabot_sameState_KL_FMN_B_11] | 415 nM | 484 nM | 553 nM | 502 nM | 482 nM
28 | GCUACUGCUGAAGGAUAUAUCAAUAGAGUGAUGUUCUAUGUCGGUAGCCCGAAAGGGCUACCGACGAUAGAAGGUCAGCAGUAGC | 113 nM | 1020 nM | 723 nM | 1070 nM | 983 nM
29 | GCUAGGCAUGCAGGAUAUCGCCGAGUGAUGUUCGGUAGGCCGCUUUCUUUCUUUCUUUGCGGCCAGCGAGAAGGGCAUGCCUAGC | 139 nM | 112 nM | 108 nM | 68 nM | 118 nM
30 | GCUAUGGUAGGAAGGAGCGCUGCCUUGUUUUUACGAGUGAUGUUCGGAAGCAGGGCGUUAAAGCAGGUAGGUCGCCUACUAUAGC [Arginine B K4 22] | 220 nM | 135 nM | 152 nM | 147 nM | 146 nM
31 | GCUAUGGUAGGAAGGAGCGCUUACUCGUUAAUAAGAGUGAUGUUCGAUAACGAGUAUUUAUAGCAGGUAGGUCGCCUACUAUAGC [Arginine B K4 4] | 207 nM | 193 nM | 168 nM | 242 nM | 199 nM
32 | GGACGACAGUCGGCCGCCACUCACAGCCGAGUGAUGUUCGGGAUUGUAGCGGAGUGAUGUUUCGCGAGGACCGGGACUGCAGUCC [Same State Typtophan B GF 27] | 200 nM | 166 nM | 184 nM | 171 nM | 141 nM
33 | GGACUACUAUGUCCCAUACAAACAAGAGAUACCAGCCAUCAUAGAGGCCCUUGGCAGCUCAUAUAAUCCAGUGAUGUUGGAUUUC [Beveus] | 150 nM | 193 nM | 163 nM | 136 nM | 132 nM
34 | GGAGAGCGAAAAGGAUAUGCGUCCGUCAAAAUUAUGUAGCGCGGAAAAUGGUAGUGAUGUUGCAAAGCAGAAGGUUUCAGAUGUA [theeternabot_sameState_KL_FMN_B_43] | 260 nM | 259 nM | 450 nM | 519 nM | 216 nM
35 | GGAGGAGAAUAUGAUACCAGCAGAGAGAGAGAGGAAGUAUAGUGAUGUUAUAUGUGAGAAUGCCCUUGGCAGCAUAACAUGAAGG [whbob_SS_Theo_B_sa90] | 288 nM | 193 nM | 211 nM | 454 nM | 159 nM
36 | GGAGUUACCUGGGAUACCAGUCGGAGUCCCAGAGCUCGGAGUGAUGUUCUGGGAUGUUUCGGCCCUUGGCAGCUCUGGGACUCCC [#2 Exclusion - Theophylline B Attempt #9 (HarryS)] | 893 nM | 597 nM | 776 nM | 726 nM | 780 nM
37 | GGAUAGGACACGGCCGCCACUACCGAGGAUACUCGAAACAUUUCCUCAGAUGAGUGAUGUUCAUCUAGGACCGGGUGUCCUAUCG [KL-XTryp-B19 #analogue] | 125 nM | 103 nM | 118 nM | 121 nM | 131 nM
38 | GGAUAGGACAGAGGAUAUGGCAGUCUACAAAGUAGGCUGAAAUAAAUCCUUGAAUGGAGUGAUGUUCCAGAAGGCUGUCCUAUCG [FmnBX 23 #SwitchBubble #StaticStem #Palindromic] | 911 nM | 156 nM | 158 nM | 169 nM | 172 nM
39 | GGAUAGGACAGAGGAUAUGGUAGCUAGGCAAGACAAAAGUCUUGUCUAGCAAUGAGGAGUGAUGUUCCAGAAGGCUGUCCUAUCG [FmnBX 4 - #SwitchBubble #StaticStem] | 753 nM | 350 nM | 442 nM | 387 nM | 270 nM
40 | GGAUAGGACGGAGGAUAUGGUAGUGAUGUUACCAAACUGGUUAAACAUGUCAGAAAACUGGCAUGACCAGAAGGUUGUCCUAUCG [FmnBX 27 G10+U75] | 98.2 nM | 69 nM | 94.5 nM | 44.4 nM | 73.3 nM
41 | GGAUAGGAUAGAGGAUAUGGAAAACACAGAAAUGACUUGUUGUGUUUAUCCAUAGGGAGUGAUGUUCCAGAAGGCUGUCCUAUCG [MatMod 21 - Jieux - Exclusion - FMN B] | 289 nM | 184 nM | 194 nM | 198 nM | 158 nM
42 | GGAUAGGAUAGAGGAUAUGGCUUAUGCAGAAAUAACUUAUUGUGUAAAUCCAUAGGGAGUGAUGUUCCAGAAGGCUGUCCUAUCG [MatMod 16 - Jieux - Exclusion - FMN B] | 821 nM | 218 nM | 235 nM | 224 nM | 202 nM
